The values below come from patent US20230331809A1.

The target in the test is CD40 (Cluster of Differentiation 40) on cells (UniProt P25942).
Sequence of CD40 (Cluster of Differentiation 40) on cells (P25942 21-277 limits assumed): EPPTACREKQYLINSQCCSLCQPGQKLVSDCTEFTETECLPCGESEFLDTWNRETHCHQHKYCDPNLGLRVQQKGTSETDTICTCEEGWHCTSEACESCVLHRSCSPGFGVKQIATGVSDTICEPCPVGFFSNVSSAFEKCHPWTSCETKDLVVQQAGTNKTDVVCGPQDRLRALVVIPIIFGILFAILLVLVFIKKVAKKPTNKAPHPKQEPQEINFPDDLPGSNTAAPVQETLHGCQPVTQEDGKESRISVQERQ

Sequence of CD40L (Invivogen), native CD40 binding partner (P29965 113-261 limits assumed): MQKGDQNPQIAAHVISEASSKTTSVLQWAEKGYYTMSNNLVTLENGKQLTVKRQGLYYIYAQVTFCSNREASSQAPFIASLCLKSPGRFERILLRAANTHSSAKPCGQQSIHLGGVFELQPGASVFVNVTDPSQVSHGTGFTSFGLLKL

“CD40L (Invivogen), native CD40 binding partner (from UniProt P29965 113-261) (ligand)” yielded an EC50, CD40 RGA, FcgRIIB CHOK1 of 0.81 µg/mL; an EC50, CD40 RGA, HEK Blue only of 0.43 µg/mL; an EC50, CD40 RGA, WT CHOK1 of 0.44 µg/mL; a Fold wrt WT (EC50, relative to v32477 - uPa), CD40 RGA, FcgRIIB CHOK1 of 16.6 fold. The Fold wrt WT (EC50, relative to v32477 - uPa), CD40 RGA, HEK Blue only is 2.76 fold and the Fold wrt WT (EC50, relative to v32477 - uPa), CD40 RGA, WT CHOK1 is 3.19 fold.
